# Tests used:
# [1] = biological target: HLA-A2/WT1 126-134 complex on T2 cells (human); assay: flow cytometry, T2 cells loaded with WT1 peptide 1x10e-5M
# [2] = biological target: HLA-A2 on HLA-A2+ cells that do not express WT1 (tumor cell lines, normal primary cells); assay: flow cytometry on 501A melanoma cells (WT1 mRNA -)
# [3] = biological target: HLA-A2/209M on T2 cells (human); assay: flow cytometry, T2 cells loaded with 209M peptide
# [4] = biological target: HLA-A2/TyrD-S23 on T2 cells (human); assay: flow cytometry, T2 cells loaded with TyrD-S23 [..], 10 µg/ml
# [5] = biological target: HLA-A2 on cells (tumor cell lines, normal primary cells, PBMCs) (human); assay: flow cytometry, MEWO melanoma cells
# [6] = biological target: HLA-A2/WT1 126-134 complex on T2 cells (human); assay: flow cytometry, T2 cells loaded with WT1 1x10e-4M in DMSO
# [7] = biological target: HLA-A2/P68 on T2 cells (human); assay: flow cytometry, T2 cells loaded with P68 peptide
# [8] = biological target: HLA-A2/TyrD-S20 on T2 cells (human); assay: flow cytometry, peptide-loaded T2 cells (10^-5 M), PE anti-mouse IgG
# [9] = biological target: HLA-A2/TyrD-S22 on T2 cells (human); assay: as above
# [10] = biological target: HLA-A2/TyrD-S21 on T2 cells (human); assay: as above
# [11] = biological target: HLA-A2/TyrD-S23 on T2 cells (human); assay: as above
# [12] = biological target: HLA-A2 on cells (tumor cell lines, normal primary cells, PBMCs) (human); assay: flow cytometry, A498 cells, 10 µg/ml
# [13] = biological target: HLA-A2/TyrD-S17 on T2 cells (human); assay: flow cytometry, T2 cells loaded with TyrD-S17 [..], 10 µg/ml
# [14] = biological target: HLA-A2 on other WT1 negative HLA-A2+ cells (other than 501, A498 and SKMEL; members not named); assay: flow cytometry on U266 cells (WT1 mRNA -)
# [15] = biological target: HLA-A2 on cells (tumor cell lines, normal primary cells, PBMCs) (human); assay: flow cytometry, astrocytes 1800, 10 µg/ml
# [16] = biological target: HLA-A2/TyrD-S1 on T2 cells (human); assay: flow cytometry, T2 cells loaded with TyrD S1 [..], 10 µg/ml
# [17] = biological target: HLA-A2 on cells (tumor cell lines, normal primary cells, PBMCs) (human); assay: flow cytometry, SK-Mel-5 melanoma cells, 10 µg/ml
# [18] = biological target: HLA-A2/MAGE-A4 230-239 complex on cells (human); assay: flow cytometry, T2 cells loaded with 10^-4 M peptide
# [19] = biological target: HLA-A2/MAGE-A9 223-231 complex on T2 cells (human); assay: as above
# [20] = biological target: HLA-A2/PAP 112-120 complex on T2 cells (human); assay: as above
# [21] = biological target: HLA-A2 on other WT1 negative HLA-A2+ cells (other than 501, A498 and SKMEL; members not named); assay: flow cytometry on IM-9 cells (WT1 mRNA -)
# [22] = biological target: HLA-A2 on cells (tumor cell lines, normal primary cells, PBMCs) (human); assay: flow cytometry, 501A melanoma cells, 10 µg/ml
# [23] = biological target: HLA-A2 on cells (tumor cell lines, normal primary cells, PBMCs) (human); assay: flow cytometry, PBMCs #YE, 10 µg/ml
# [24] = biological target: HLA-A2/SSX-2 on T2 cells (human); assay: flow cytometry, T2 cells loaded with SSX2 [..], 10 µg/ml
# [25] = biological target: HLA-A2 on HLA-A2+ cells that do not express WT1 (tumor cell lines, normal primary cells); assay: flow cytometry on SKMEL-5 melanoma cells (WT1 mRNA -)
# [26] = biological target: HLA-A2/WT1 126-134 complex on T2 cells (human); assay: flow cytometry, peptide-loaded T2 cells (10^-4-10^-5 M), PE anti-mouse
# [27] = biological target: HLA-A2/WT1-S11 on T2 cells (human); assay: as above
# [28] = biological target: HLA-A2/WT1-S3 on T2 cells (human); assay: as above
# [29] = biological target: HLA-A2/WT1-S5 on T2 cells (human); assay: as above
# [30] = biological target: HLA-A2/WT1-S6 on T2 cells (human); assay: as above
# [31] = biological target: HLA-A2/TyrD-S2 on T2 cells (human); assay: flow cytometry, T2 cells loaded with TyrD S2 [..], 10 µg/ml
# [32] = biological target: HLA-A2/154 on T2 cells (human); assay: flow cytometry, T2 cells loaded with 154 peptide
# [33] = biological target: HLA-A2 on cells (tumor cell lines, normal primary cells, PBMCs) (human); assay: flow cytometry, WM-115 melanoma cells
# [34] = biological target: HLA-A2 on cells (tumor cell lines, normal primary cells, PBMCs) (human); assay: flow cytometry, HEP-G2 cells, 10 µg/ml
# [35] = biological target: HLA-A2 on cells (tumor cell lines, normal primary cells, PBMCs) (human); assay: flow cytometry, 501A melanoma cells, 10 µg/ml; remark: listed apart in the source
# [36] = biological target: HLA-A2 on cells (tumor cell lines, normal primary cells, PBMCs) (human); assay: flow cytometry, renal epithelial cells 4100-2, 10 µg/ml
# [37] = biological target: HLA-A2/TyrD-S21 on T2 cells (human); assay: flow cytometry, T2 cells loaded with TyrD-S21 [..], 10 µg/ml
# [38] = biological target: HLA-A2/TyrD-S6 on T2 cells (human); assay: flow cytometry, T2 cells loaded with TyrD S6 [..], 10 µg/ml
# [39] = biological target: HLA-A2 on cells (tumor cell lines, normal primary cells, PBMCs) (human); assay: flow cytometry, H522 cells, 10 µg/ml
substance,measurement,setting,value
BB7.2 (antibody),MFI,[1],369
same,MFI,[2],229
same,MFI,[3],2870
same,MFI relative to background,[4],443
same,MFI,[5],76
same,MFI,[6],722
same,MFI,[7],2660
same,MFI relative to background,[8],445
same,MFI relative to background,[9],464
same,MFI relative to background,[10],654
same,MFI relative to background,[11],443
same,MFI,[12],170
same,MFI relative to background,[13],444
same,MFI,[14],80.1
same,MFI,[15],590
same,MFI relative to background,[16],596
same,MFI,[17],118
same,MFI,[18],492
same,MFI,[19],486
same,MFI,[20],540
same,MFI,[21],727
same,MFI,[22],243
same,MFI,[23],366
same,MFI relative to background,[24],1280
same,MFI,[25],170
same,MFI,[26],2260
same,MFI,[27],1670
same,MFI,[28],1410
same,MFI,[29],1080
same,MFI,[30],1670
same,MFI relative to background,[31],929
same,MFI,[32],1920
same,MFI,[33],127
same,MFI,[34],315
same,MFI,[35],760
same,MFI,[36],564
same,MFI relative to background,[37],654
same,MFI relative to background,[38],516
same,MFI,[39],52.7
